The values below come from the DeepSol protein solubility set.

The series is described as follows: soluble on expression in E. coli; label from the status in PepcDB or PDB records.
Consider “MGSDKIHHHHHHMCPMQNYPYVITVSSEKGGVGKTTLATNLAIYLKALDENLPVTIFSFDNHFTVDRMFEIRGQRLTGSVADLLMESPPRDLIHTGQYGVGYIPSSASLNDLKGSIRGPMVLARLLAASRIPGVLIIDTRPDLDMLTQNALFAADRAIIPVKDMPSLENCRNIFALFEQRGLDRKSLSLIPCLVDERIKFDGPFNDQKTLLKAYAINRGYRCLDVYISKSPKVESLNTNPDGKIYPILTHAKWTEVHGQFAQLAQILINEYNATTEPRSLLFHKWLQTEESRKKEEFFARLSGIKSQCLLCGKPVSDDGDGRHSFYFEVSDGSAAGFFEEECFLTMLMTNIYNMDVSMVDDAPTVHLMRDSSRESAFVFRPASNGGAVEFHRFSLDGTLLIKKNYPLREYEGGLLRRERSRLYTLMTEALGTAGAGSSDRFILVHPVTRDNPQGILRDESYRGLTKLKQHIAAQIASS”, for which the “soluble on expression in E. coli” value is given as “not soluble”.

Turning to “MNVSIKNTDAVNAIATVAIEKADYANEVEKALRTYRQRANVPGFRKGMVPMGMIKKMYGKGVKAEEINRVVGRELYRYIAENKLNVLGEPMPNEELQKEYDFDTTDDFEFVFDLALSPVVDVVVDKSIRVPYYTIQPTEEMIDRQIESMRSSYGHSVEADEVTANDVVKGRLCELEDGQPKEGGICVEEAMLLPAYMKDEEEKNKFVGAAKNSVVVFNPSKAYNNNEYELSSLLKVDKSAIGEHTGDFSFEISSISRHEKAELNEEFFKQAFGEETDIKNEADLRVKVTEGVREQFTAESDYKFLIDLRRELEAQVGELQFPDALLKRWLKLSHTEWSDEELEKQYPAMIKDLTFHVIKEDLVKKNDIVVTPQEVRNFAIIVAKNQFAQYGMSAVPQDALERYANTMMEKEDARRNFFDRVTENKLAAALKEKLDIDAKTVSPDEFNKLMTEQPASAE”, the “soluble on expression in E. coli” value is recorded as “not soluble”.

With “MTLNYHAHGKEIEASYRRASDDSDGDKWVIFDYEGNSNTLRVKEEGTGGLEEFADSFSSGKLQFGVISVRLSSDVFPKIVLVHWQGEGVPTLRLASTTPHAEEFRRFLKTVHIVLHARSEIDIEPDAIRKEVRKLPAANANAIVESTYSMPEKVNSVYQPTNAHSELSSEARENFWSTTNQEEKRRQADEKVAHAKQQKQYEADRDRTAAAIHTKAEDFQPEKVNSVYKPTKPHVELKTVKREEFWSKMNEEEKLRQEEEKTAREQAHKQFEADRQRMASEIHSKTENYQPDKVTSVYKPTKPHVEISSSAREEFWSKMNEEEQRRQAEEKEAQAQKQKEFETDRKRIADDLHGKAQISDKPVPSSVNPAPAPAPTPSAGLVGSRKELFSSKPSGPVLPKPQVNGSPKKWPPVGTTSPPREPVNRLTEPDEPSTYTPKPIAYEPEPMVYKPEAMKPAVSYDAYEEPPAEPAPPTFLAPTPVIAPPPPEPTPAPSHYASQYDAPPVHESFEPAVPPVSAPSHYASQYDAPPEPIDSHSSSSQLPAHIASQYDMPPVMPEEPVFAPKSSPIKVAAPPIDQYDFPPAVAEQNAMALWDYQAADDTEISFDPDDIITDIDQVDSGWWKGRAPSGRVGLFPANYVKLI”, the “soluble on expression in E. coli” value was “not soluble”.

Take “MELRHIRYFLAVAEERHFTRAATKLGIGQPPLSQQIKDLERELGAQLFRRVPHGAELTEAGKAFYDVVKGMPATATRAVLAAQRVARGESGVLRVGFTASAAFNSVVPGAIRTFKRAYPDVRLQLEEGNTTQLADELNEGSLDVAFLRPGFTGNERFQLRLLSEEPMVIVLAETHPAAACKQIALSILKDEFFLLFPREIGLSLYDAVIKACGKAGFEPKIGQLVPQISSVINLVSAEMGVSMVPDSMRQVNVKGVVYRPVADQMPVAKLALAYRRGDTSPTLRNFILKVTG”: the “soluble on expression in E. coli” value is “not soluble”.

“MKSLEEKTIAKEQIFSGKVIDLYVEDVELPNGKASKREIVKHPGAVAVLAVTDEGKIIMVKQFRKPLERTIVEIPAGKLEKGEEPEYTALRELEEETGYTAKKLTKITAFYTSPGFADEIVHVFLAEELSVLEEKRELDEDEFVEVMEVTLEDALKLVESREVYDAKTAYAIQYLQLKEALQAQK”: the “soluble on expression in E. coli” value was “not soluble”.

For the sequence “MIIAGVDIGNSTTEVALAKVNGDEIRFLASGISNTTGIKGTPQNVEGVRHALEDAVRKANLTIKDIDLLRINEATPVISDIAMEAITETIITESTMIGHNPTTPGGVGLGIGITIPIFELEKCKHGEEVIVVIPKNVDYEDAAKIINNAFSKGVEVKGAIAQKDDGVLIATRLQRRIPIVDEVKQIEKVPIGMLACVEVAEPGYTIKTLSNPYGIASVFNLTAEETKNIVPVARALIGNRSAVVIRTPKGEVQERKIPAGTLIIKGNNRTFTVDIEEGAEAIMSAVESTWPLVDAEGTPGTNVGGLIARIKETMADVTGQDSSNIQIQDVLAVDTLVRQKVKGGIAEEFSSENAVALAAMVKSSKLPMEKVAQKIEQEIGIAVEIAGIEANMAIIGALTTPGTELPLAILDLGGGSTDAALMTKNGEVKSVHMAGAGEMVNMLIKTELGIEDKYLVEDIKKYPVCRVESLFSIRLEDGTVRFFKEPLDPRTFARVCLLREDGLLPLPPELNMEKVINVRRNAKRKVFVTNALRALSKVAPAGNIRLIDFVVMVGGSALDFEIPEMISDTLAGYGIVAGRGNIRNVEGPRNAVATGLVLSRCKRK”, the “soluble on expression in E. coli” value is “not soluble”.

For the sequence “MSNPTKISILGRESIIADFGLWRNYVAKDLISDCSSTTYVLVTDTNIGSIYTPSFEEAFRKRAAEITPSPRLLIYNRPPGEVSKSRQTKADIEDWMLSQNPPCGRDTVVIALGGGVIGDLTGFVASTYMRGVRYVQVPTTLLAMVDSSIGGKTAIDTPLGKNLIGAIWQPTKIYIDLEFLETLPVREFINGMAEVIKTAAISSEEEFTALEENAETILKAVRREVTPGEHRFEGTEEILKARILASARHKAYVVSADEREGGLRNLLNWGHSIGHAIEAILTPQILHGECVAIGMVKEAELARHLGILKGVAVSRIVKCLAAYGLPTSLKDARIRKLTAGKHCSVDQLMFNMALDKKNDGPKKKIVLLSAIGTPYETRASVVANEDIRVVLAP”, the “soluble on expression in E. coli” value is on record as “soluble”.

As to “MSIVVKKWNELAEVKAELAARDWFFATSGNLSIKVTDDPLTFLVTASGKDKRKQTEEDFLLVDAAGKPAEETNLKPSAETLLHAEIYGRTNAGCVLHVHTVDNNLISELYAQNGEAVFSGQEIIKAFGIWEENAAVRIPIIDNYADIPTLAREFANYIHGDAGAVLIQNHGITVWGRTAFEAKKHLEAWEFLFRWQVKRLLLQRAGLPVG”, the “soluble on expression in E. coli” value is given as “not soluble”.

For “MRKSVFVLVFLMASVLFSVELKICYLNEDLLPIVKVTEGRDNPVLEIFEALSSPPEGLKTFVPEGVLRAYFFVGDYLILDFYGEKLKGMNFDSERYFLHQVLYTTFLNVKGVNNVYIIIDGKKRDVLAKHVDIRFSFPREVWEKWPIRLEHHHHHH”, the “soluble on expression in E. coli” value was “not soluble”.

Turning to “MAHHHHHHMCFVARHKPALISGEAVVWLMERITGEELDVRSLENLCSAVVHLPVAVRTALRQELMEFVAFLSLQARELLQQVPAAQGGLSGCSDADAIQYFVSHVLELTVMLRTYPDLQWPPEFLAAVDACAASVEPLQEALLSAESSPVGLMVRLLEAPTGECKRVGLAMLREAANQCQSFATLQTFRFLLLMGDHGLQDVGTSRYLRDQFAKTAADVPPVQLSVALRCLGVATAGAATQGASGAGELRATVEGTAGNADLDDELERERLDAFLQFCVEVSRKHLSQGAPLRCVLATTESLHRLGCRDTAFFADVAAYIAAKHAAAPAERESADTATAVCAALGEDLLGEYPAVREFLLDVAQRGVRGESAMSPTQWMNLHDPSNALTPLTEQQQESWDIVEEMVRTRSDDVDALVRLAEKYMELLPFARPDDHKYFFGVCEEKVLKQDKLLKKCLDTIVDCGAVSRLSAQTIASILHSLAAIRFEYFASVKRFTSSISDEQWLLMEAAPLVQILTGMDKLSLRTPAVLRRIGGRLTEICRFLTPLDTAQAIHALQALGHNDAKLLGKLAAHAAALARRFDEASMAVLFSTPSIHRLMSTPEVARPLLLQASAKIQSQHRREKISAWVRRSGLPRELIDESTRRLQVTSGDARSSEVHLRLT”, the “soluble on expression in E. coli” value is recorded as “not soluble”.

For “MGRGIAQIIRHDEPTDEIVDKFYRQINNPVLANINLQWEGDGDSPIIYPCNPPDLFAEQPLVLFGKKPDARGGKLHITGIVAGGTHYQHTFDLNFEETGNPAIAQLWGRYRIKELMNLMVSGETKLGVEAVTDTALTYQMLSQYTAFVAVSDDVRVDSLQETVSVQVPVEMAEGISYLGIFGSAVSAAAPIMANMVLEHHHHHH”, the “soluble on expression in E. coli” value is on record as “not soluble”.

On to “MRLDLENLVETPSNEIAGFYEGLVEALPSLEGHYCSPGCRGGFLMRVREGTMMGHIVEHVALELQELAGMHVGFGRTRETATPGVYQVVIEYINEEAGRYAGRAAVRLCQSIVDRGRYPKAELEQDIQDLKDFSREASLGPSTEAIIKEAEKRGIPWMPLAARFLIQLGYGVNQKRMQATMTDNTGILGVELACDKEATKRILAANGVPVPRGTVINFLDDLEESIEYVGGYPIVIKPLDGNHGRGITIDIRSWDEAEAAYEAARQVSRSIIVERYYVGRDHRVLVVDGKVVAVAERVPAHVIGNGRSSIAELITETNQDPNRGEGHDNVLTKIELDRTSYQLLERQGYTLNSVPPKGTICYLRATANLSTGGSAVDRTDEIHPENVWLAQRVVRIIGLDIAGLDIVTTDISRPLRDVDGVIVEVNAAPGFRMHVAPSQGIPRNVAGAVMDMLFPNEKPSRIPILTVTGTNGKTTTTRLLAHIYRQTKKVVGYTTTDGTYIGDYLVEAGDNTGPQSAHVILQDPTVEVAVLESARGGILRSGLGFESANVGVVLNVAADHLGIGDIDTIEQLANLKSVVAEAVFPDGYAVLNADDHRVAAMSEKTKANIAYFTMNPDSDLVRKHIQKGGVAAVYENGYLSIVKGDWTHRIERAENIPLTMGGKAPFMIANALAASLAAFVQNVTIEQIRPGLRTFRASVSQTPGRMNLFNLGKYHALVDYAHNPASYEALGSFVRNWTTGQRIGVIGGPGDRRDEDFVTLGKLSADIFDYILVKEDDDTRGRLRGSASDLIIQGITQVKPNSRFESILDETQAINKALDMAPDGSLVVILPESVNRAIKLIKVRGVQEEIQPQNSTTTINDSQNGVAPSSVVNTLL”, for which the “soluble on expression in E. coli” value is on record as “not soluble”.

On to “MSLTAHRIGFLVWPGTKAMTLALAEEALRVAQRVHPEVVYELSFLQAELAEPAAVAGGWQLPGEPWTGRLEGLQKLFLLADEPPAAVAPALGSALKQLVRAGCSIGGLSAGVYPLAQLGLLDGYRAAVHWRWQDDFAERFPKVIATSHLFDWDRDRLTACGGMSVLDLLLAVLSRDHGAELAGAVSEELVVERIREGGERQRIPLQNRLGSSHPKLTQAVLLMEANIEEPLTTDEIAQHVCVSRRQLERIFKQYLNRVPSQYYLELRLNKARQMLMQTSKSIIQIGLSCGFSSGPHFSSAYRNFFGATPREDRNQRRSSSPFELSPVPAKGIITITTDPNSSSVDKLAAALEHHHHHH”, for which the “soluble on expression in E. coli” value is on record as “soluble”.

In the case of “MAHHHHHHMLTIVDELKAAVMARHEADAPKMKILKEKYKNEKLSDATIDAAYGGMRGITGLIYESSMLDKEQGICFRGMTIPECCEKIPKSWKGGTSPLPEGMLWLLMTGSIPTDKQVKELHVELHRRADNEAITAATKTIASLPENTHPMTQLSTGVLALQAFSKFAPAYASGKAIKSNFWEYALEDSLDIIARTPYLAAAIYNRLTTGRAAVLNPANPDLDWAANFTNMLGYQDEKFWDCMRLYLSLHADHEGGNVSAHATTLVASALSDPYLSFSAGLNGLAGPLHGLANQESLSYLFEMRDKCKAAGVNMKDRKELAAGLEKLTWERLNAKRVIPGYGHAVLRIPDPRYMCLREYCLKHFPDDELFFLVDTIYSIMPDILKKHGKTKNPFPNVDAHSGMLLQHFGLTEQNFYTVLFGISRQLGALTGVVWDRLQGRPIERPKSITSDALFKKFKIE”, the “soluble on expression in E. coli” value is “not soluble”.

For “MPSVPRVDRLKPIYTAAKALNFGWRFSDFLKIPAYNGISRYTNQLHRITVRFCKQSESSVGVRNFIENQLVEIGRKNPSVVIYAQPVRNSNPSIRAEYGNGRTLQINAKNMTQDEVSKDVHLLFSRSGEPVVKLESRQSALVPSIQGQWTPITWLPTEMNTEQLPAKQFSKHKSTATSATEYILQNPPK”, the “soluble on expression in E. coli” value is on record as “not soluble”.
